Results on two molecules are retold here after patent US20220169747A1 (CERTIS THERAPEUTICS, published 2022).

Assay [1] concerns the target T1, control irrelevant peptide H-LEEKKGNYVVTDHC-NH2 coupled to KLH (also: coupled to KLH).
T1 construct: Synthetic negative control; also called control peptide; negative control peptide-KLH
T1 peptide: H-LEEKKGNYVVTDHC-NH2
In words: ELISA, antigen on the plate, anti-mouse Ig-alkaline phosphatase, pNPP, A405nm. The procedure:
(§1) Polystyrene 96-well plates were coated with 3% FCS in PBS for one hour at RT. A final peptide concentration of 1 mg/mL was achieved by diluting the peptide in 0.1% acetic acid. This peptide solution was further diluted to 30 μg/ml in 3% FCS-PBS. Plates were incubated with the linear or cyclic peptide immunogen coupled to KLH, HER2-ECD or negative control peptide-KLH, in dilution buffer (3% FCS-PBS) for one hour at RT. […] Following washing, plates were then incubated with anti-mouse Ig-Alkaline phosphatase (Sigma A-3688), (1:3000 dilutions) for one hour at RT.
Background: ELISA stands for enzyme-linked immunosorbent assay.

The target in assay [2] is T2, recombinant ErbB4/HER4 ECD (UniProt Q15303 26-651, limits assumed).
T2 construct: extracellular domain; also called ErbB4 ECD
T2 sequence (looked up): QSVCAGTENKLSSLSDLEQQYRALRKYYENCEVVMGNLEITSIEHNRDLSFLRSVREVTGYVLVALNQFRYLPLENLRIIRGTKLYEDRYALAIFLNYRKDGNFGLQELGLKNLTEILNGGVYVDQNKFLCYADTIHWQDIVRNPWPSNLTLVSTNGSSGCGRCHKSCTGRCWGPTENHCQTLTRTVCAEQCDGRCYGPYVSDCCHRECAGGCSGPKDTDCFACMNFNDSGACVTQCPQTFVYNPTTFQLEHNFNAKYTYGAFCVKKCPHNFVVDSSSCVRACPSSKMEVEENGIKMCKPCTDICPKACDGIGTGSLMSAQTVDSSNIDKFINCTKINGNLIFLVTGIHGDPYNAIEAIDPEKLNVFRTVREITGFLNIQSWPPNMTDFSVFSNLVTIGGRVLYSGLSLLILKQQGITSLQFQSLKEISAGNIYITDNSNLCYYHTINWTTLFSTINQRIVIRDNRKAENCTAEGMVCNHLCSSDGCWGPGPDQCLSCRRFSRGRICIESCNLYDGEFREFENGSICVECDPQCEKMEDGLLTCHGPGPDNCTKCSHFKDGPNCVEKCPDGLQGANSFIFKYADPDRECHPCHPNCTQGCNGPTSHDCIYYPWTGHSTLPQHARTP
The experiment in a line: ELISA, plate coated with recombinant HER4 ECD, anti-mouse antibody-alkaline phosphatase, pNPP, A405 nm. The protocol: (§2) Polystyrene 96-well plates were coated with […], 3 μg/mL recombinant ErbB2 ECD, ErbB3 ECD, ErbB4 ECD or EGFR501 in PBS overnight at 4° C. The plates were blocked with 3% FCS in PBS for one hour at room temperature (RT). Plates were incubated with 10 μg/mL serially diluted purified antibody along with appropriate controls for one hour at RT. Following washing three times, plates were incubated with anti-mouse IgG AP conjugate (1:2000 dilutions) for one hour at RT.

The target of assay [3] is T3, linear HER2 peptide immunogen H-CPLHNQEVTAEDGTQR-NH2 coupled to KLH (also: coupled to KLH).
T3 construct: Synthetic peptide; also called linear peptide; KLH-linear peptide
T3 peptide: H-CPLHNQEVTAEDGTQR-NH2
The experiment in a line: ELISA, antigen on the plate, antibody at 10 ug/mL, anti-mouse Ig-alkaline phosphatase, pNPP, A405nm. The procedure:
as §1

Assay [4] concerns the target T4, cyclic HER2 peptide immunogen H-GCPLHNQEVTAEDGTQRC-NH2 coupled to KLH (human, disulfide 2-18 (inferred); also: coupled to KLH).
T4 construct: also called cyclised peptide; circularised peptide
T4 peptide: H-GCPLHNQEVTAEDGTQRC-NH2
The assay is described as above. The procedure:
as §1

Assay [5] concerns the target T5, recombinant sEGFR ectodomain (EGFR501) (UniProt P00533 25-645, limits assumed).
T5 construct: extracellular domain; also called EGFR/HER1 ectodomain
The experiment in a line: ELISA, plate coated with recombinant sEGFR ectodomain, anti-mouse antibody-alkaline phosphatase, pNPP, A405 nm. The procedure:
as §2

Assay [6] addresses T6, recombinant ErbB3/HER3 ECD (UniProt P21860 20-643, limits assumed).
T6 construct: extracellular domain; also called ErbB3 ECD
The experiment in a line: ELISA, plate coated with recombinant HER3 ECD, anti-mouse antibody-alkaline phosphatase, pNPP, A405 nm. The procedure: as §2

Bridges are numbered along the chain shown (N, C = ends).

B1: mAb104 (antibody, IgG1, V domains shown)
VH: EVQLQQSGPELVKPGASVKISCKASGYSFTGYFMHWVRQSHVRSLEWIGRINPYNGDIRYNQNFKDKASLTVDKSSSTAYMELHRLTSEDSAVFYCASLNFAYWGQGTPVTVSA
VL: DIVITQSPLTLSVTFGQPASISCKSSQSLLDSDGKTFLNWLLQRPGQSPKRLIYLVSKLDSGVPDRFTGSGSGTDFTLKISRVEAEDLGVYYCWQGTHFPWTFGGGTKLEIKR
notes: Murine monoclonal purified from hybridoma supernatant
For the molecule B1, the binding result in assay [1] is on record as “no binding (tested: 10 ug/mL)”; in assay [2], “no binding (tested: 10000 ng/ml)”; in assay [3] it was “binds”; in assay [4], “binds”; in assay [5], “no binding (tested: 10000 ng/ml)”; in assay [6], “no binding (tested: 10000 ng/ml)”.

B2: mAb106 (antibody, IgG1, V domains shown)
VH: QIQLVQSGPELKKPGETVKISCKASGYTFTDYGMNWVKQAPGKGLKWMGWINTYTGKPTYDDDFKGRFAFSLETSASTAYLQINNLKNEDMATYFCARRFLNTVAGRSVYFDYWGQGTTLTVSS
VL: QIVLTQSPALMSVSPGEKVTMTCSVSSSVGSMYWYQQKPRSSPKPWIYLTSNLASGVPPRFSGSGSGTSYSLTISSMEGEDAATYYCQQWSSNPPTFGAGTKLELKR
notes: as for B1
With B2, the binding result in assay [1] is reported as “no binding (tested: 10 ug/mL)”; in assay [3] it was “binds”; in assay [4], “binds”.
